The nanobody polyreactivity screen of Harvey et al. (2022)

experiment: yeast display, Sf9 membrane polyspecificity reagent, FACS + sequencing; frameworks hold sequencing errors
In short: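 Galactose induction of a Saccharomyces cerevisiae BJ5465 synthetic nanobody display library ran 36–48 hours. The cells were then stained for 1 hour at 4 °C with 10% biotinylated, detergent-solubilized Sf9 membrane reagent, pulled down on streptavidin microbeads and FACS-sorted into low and high (top ~1%) gates on expression and reagent-binding fluorescence. Labels for polyreactivity follow the gate of origin.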

| Sequence | polyreactivity (PSR sort gate) |
| --- | --- |
| QVQLVESGGGLVQAGGSLRLSCAASGRIFGHNAMGWYRQAPGKERELVATISSGVRTNYADSVKGRFTISRDNAKNTVYLQMNSLKPEDTAVYYCATKTYQFGYSSYYYWGQGTQVTVSS | high polyreactivity |
| QVQLVESGGGLVQAGGSLRLSCAASGRIFGHNSMGWSRQPPWKEMELVATISSGVRTNYADSVKGRFTISRDNAKNTVYLQMNSLKPEDTAVYYCATKTYQFGYSSYYYWGQGTQVTVSS | high polyreactivity |
| QVQLVESGGGLVQAGGSLRLSCAASGRIFGHYAIGWYRKAPGKERELVAAISTSGGSTYYADSVKGRFTISRDNAKNTVYLQMNSLKPEDTAVYYCAASVVYYPYDYWGQGTQVTVSS | high polyreactivity |
| QVQLVESGGGLVQAGGSLRLSCAASGRIFGINALGWYRQAPGKERELVAAISSADSTYADSVKGRFTISRDNAKNTVFLQMYSLNPEDTAVYNCRNDYWGQGTQVTVSS | low polyreactivity |
| QVQLVESGGGLVQAGGSLRLSCAASGRIFGINAMGWYRQAPGKERELVAAINRSGDTTNYADSVKGRFTISRDNAKNTVYLQMNSLKPEDTAVYYCAADGYRQVYYRYYYWGQGTQVTVSS | high polyreactivity |
| QVQLVESGGGLVQAGGSLRLSCAASGRIFGINAMGWYRQAPGKERELVAAITWSGDGTYDADSVKGRFTISRDNAKNTVYLQMNSLKPEDTAVYYCAKQLPEISQMDYWGQGTQVTVSS | low polyreactivity |
| QVQLVESGGGLVQAGGSLRLSCAASGRIFGKYAMGWYRQAPGKERELVAAISRSGASTYYADSVKGRFTISRDNAKNTVYLQMNSLKPEDTAVYYCAAVPPYNYRVRVYYWGQGTQVTVSS | high polyreactivity |
| QVQLVESGGGLVQAGGSLRLSCAASGRIFGKYAMGWYRQAPGKERELVAAISSSGGSTYYADSVKGRFTISRDNAKNTVYLQMNSLKPEDTAVYYCAADAAVSRVYPYDYWGQGTQVTVSS | high polyreactivity |
| QVQLVESGGGLVQAGGSLRLSCAASGRIFGKYAMGWYRQAPGKERELVAAISSSGRTNYADSVKGRFTISRDNAKNTVYLQMNSLKPEDTAVYYCAVRVLIHTNTRRLDYWGQGTQVTVSS | high polyreactivity |
| QVQLVESGGGLVQAGGSLRLSCAASGRIFGKYAMGWYRQAPGKERELVAAISVRGGRTFYADSVKGRFTISRDNAKNTVYLQMNSLKPEVTAVYYCAARGADKGSYADVDYWGQGTQVTVSS | low polyreactivity |
| QVQLVESGGGLVQAGGSLRLSCAASGRIFGLNAMGWYRQAPGKERELVAAITGSVGSTYYADSVKGRFTISRDNAKNTVYLQMNSLKPEDTAVYYCNAEYDSRRSSYYRHFNYWGQGTQVTVSS | low polyreactivity |
| QVQLVESGGGLVQAGGSLRLSCAASGRIFGNTMGWYRQAPGKERELVAAITRSGVSTYYADSVKGRFTISRDNAKNTVYLQMNSLKPEDTAVYYCAKVYSRRSVLSRYGSWGQGTQVTVSS | high polyreactivity |
| QVQLVESGGGLVQAGGSLRLSCAASGRIFGNYAMGWYRQAPGKERELVAAISGGGSTYYADSVKGRFTISRDNAKNTVYLQMKSLKPEDTAVYYCAARFLWSVFGRKGGYWGQGTQVTVSS | low polyreactivity |
| QVQLVESGGGLVQAGGSLRLSCAASGRIFGNYAMGWYRQAPGKERELVAAISGGGSTYYADSVKGRFTISRDNAKNTVYLQMNSLKPEDTAVYYCAARFLWSVFGHKGGYWGQGTQVTVSS | low polyreactivity |
| QVQLVESGGGLVQAGGSLRLSCAASGRIFGNYAMGWYRQAPGKERELVAAITSGARTYYADSVKGRFTLSRDNAKNTVYLQMNSLKPEDTAVYYCAAYHKSYSNRYDYWGQGTHVTVSS | high polyreactivity |
| QVQLVESGGGLVQAGGSLRLSCAASGRIFGPNAMGWYRQAPGKETELVAVISTGGSTNYADSVKGRFTISRDNAKNTVYLQMNSLKPEDTAVYYCAAAYQYERGGLYNRFYYWGQGTQVTVSS | low polyreactivity |
| QVQLVESGGGLVQAGGSLRLSCAASGRIFGPYAMGWYRQAPGKERELVAAISWSGGSTYYADSVKGRFTISRDNAKNTVFLQMNSLKPEDTAVYYCAARERRVYGDRFYKLDYWGQGTQVTVSS | high polyreactivity |
| QVQLVESGGGLVQAGGSLRLSCAASGRIFGPYAMGWYRQAPGKERELVASISYSGGSTYYADSVKGRFTISRDNAKNTVYLQMNSLKPEDTAVYYCARRAVYSKRRYDYWGQGTQVTVSS | low polyreactivity |
| QVQLVESGGGLVQAGGSLRLSCAASGRIFGPYTMGWYRPAPGKERELVARISRRGGSTYYADSVKGRFTISRDNAKNTVYLQMNSLKPEDTAVYYCAAWFTSTRPYDYWGQGTQVTVSS | high polyreactivity |
| QVQLVESGGGLVQAGGSLRLSCAASGRIFGPYTMGWYRQAPGKERELVAAISWSGGSTYYADSVKGRFTISRDNAKNTVYLQMNSLKPEDTAVFYCNADHPFPQYEGGSWGQGTQVTVSS | low polyreactivity |
| QVQLVESGGGLVQAGGSLRLSCAASGRIFGQYAMGWYRQAPGKERELVAAISWRGGTTYYADSVKGRITISRDKAKNTVYLQMNSLKPVDTAVYYCNADVWVYPYDYWGQGTQVTVSS | low polyreactivity |
| QVQLVESGGGLVQAGGSLRLSCAASGRIFGQYAMGWYRQAPGKERELVASISRRGGSKNYADSVKGRFTISRDNAKNTVYLQMNSRKPEDTAVYYCATGRTWILQKLDYWGQGTQVPVSS | high polyreactivity |

| Sequence | polyreactivity (PSR sort gate) |
| --- | --- |
| QVQLVESGGGLVQAGGSLRLSCAASGRIFGRNAMGWYRQAPGKERELVAAISSGSGSTYYADSVKGRFTISRDNAKNTVYLQMISLKPEDTAVYYCAATVSTYLAWRGYWGQGTQVTVSS | high polyreactivity |
| QVQLVESGGGLVQAGGSLRLSCAASGRIFGRNARGWYRQAPGKERELVAAISSSGGTYYADSVKGRFTISRYNAKNTVYLQMNSLKPEDTAVYYCNARVRTQQRWVDYWGLGTQVTVSS | high polyreactivity |
| QVQLVESGGGLVQAGGSLRLSCAASGRIFGRNTMGWYRQAPGKERELVASITFGGVSTYYADSVKGRFTISRDNAKNTVYLQMNSLKPEDTAVYYCAAVLINYEGYDSWGQGTQVTVSS | low polyreactivity |
| QVQLVESGGGLVQAGGSLRLSCAASGRIFGRNTMGWYRQAPGKERELVAVISWRGGSTYYADSVKGRFTISRDNAKNTVYLQMNSLKPEDTAVYDCNPKYPFSRRGDYWGQGTQVTVSS | high polyreactivity |
| QVQLVESGGGLVQAGGSLRLSCAASGRIFGRYAMGRYRQAPGKERELVAAISSTVGSTYYADSVKGRFTISRDNAKNTVDLQMNSLKPEDTAVYYCATVWYGSYYWATEYWGQGTQVTVSS | high polyreactivity |
| QVQLVESGGGLVQAGGSLRLSCAASGRIFGRYAMGWYRQAPGKERELVAAITRSGGNTYYADSVKGRFTISRDNAKNTVYLQMNSLKPEDTAVYYCAVRQLDRRSPKYNYWGQGTQVTVSS | high polyreactivity |
| QVQLVESGGGLVQAGGSLRLSCAASGRIFGRYAMGWYRQAPGKERELVATITYTGGSTYYADSVKGRFTISRDNAKNTVYLQMNSLKPEDTAVYSCNAVKPVSRTYDSSYYWGPGTQVTVSS | high polyreactivity |
| QVQLVESGGGLVQAGGSLRLSCAASGRIFGRYTMGWYRQAPGKERELVAGITSSGGRTYYADSVKGRFTISRDNANNTVYLQMNSLKPEDTAVYYCAAKRWSVPSLYNYWGQGTQVTVSS | high polyreactivity |
| QVQLVESGGGLVQAGGSLRLSCAASGRIFGTDVMGWYRQAPGKERELVARITGGGSTNYADSVKGRFTISRDNAKNTVYFQMNSLKPEDTAVYYCARDYGPYLSPENPAPMDYWGQGTQVTVSS | low polyreactivity |
| QVQLVESGGGLVQAGGSLRLSCAASGRIFGTNALGWYRQAPGKERELVATITRGGGNTYYADSVKGRFTISRDNAKNTVYLQMNSLKPEDTAVYYCAAKFHRFAWYSHYDYWGQGTQVTVSS | low polyreactivity |
| QVQLVESGGGLVQAGGSLRLSCAASGRIFGTNAMGWYRQAPGKERELVADITSGGSTNYADSVKGRFTISRDNAKNTVYLQMNSLKPEDTSVYYCAATWYGYYSRYDFYYWGQGTQVTVSS | low polyreactivity |
| QVQLVESGGGLVQAGGSLRLSCAASGRIFGTNAMGWYRQAPGKESELVATITRGGGNTYYADSVKGRFTISRDNAKNTVYLQMISLKPEDTAVYYCGAKFHRFAWYSHYDYWGQGTQVTVSS | low polyreactivity |
| QVQLVESGGGLVQAGGSLRLSCAASGRIFGTNAMGWYRQAPGKESELVATITRGGGNTYYADSVKGRFTISRDNAKNTVYLQMNSLKQEDTAVYYCNTRRLHGWLYGYEYWGQGTQVTVSS | low polyreactivity |
| QVQLVESGGGLVQAGGSLRLSCAASGRIFGTYAMGWYRQAPGKERELVAAISSSGTSTYYADSVKGRFTISRDNAKNTVYLQMNSLKPEDTAVYYCAADTVSFSILYDYWGQGTQVTVSS | low polyreactivity |
| QVQLVESGGGLVQAGGSLRLSCAASGRIFGTYAMGWYRQAPGKERELVASITDRGDSTYADSVKGRFTISRDNAKNTVYLQMNSLKPEDTAVYYCAVGYNSKLAVGMYYWGQGTQVTVSS | low polyreactivity |
| QVQLVESGGGLVQAGGSLRLSCAASGRIFGTYTMGWYRQAPGKERELVAAISRNGGSTYYADSVKGRITISRDNAKNTVYLQMNSLKPEDTAVYYCNAERRDDRGFDYWGQGTQVTVSS | low polyreactivity |
| QVQLVESGGGLVQAGGSLRLSCAASGRIFGVNAMGWYRQAPGKERELVAAISSGDSTYYADSVKGRFTISRDNAKNTVYLQMTCLKPEDTAVYYCAADVLGTTTTVGGFNYWGQGTQVTVSS | low polyreactivity |
| QVQLVESGGGLVQAGGSLRLSCAASGRIFGVNAMGWYRQAPGKERELVAAISSNGGRTYYADSVKGRFTISRDNAKNTVYLQMNSLKPEDTAVYYCATRSSVGARHYYWGQGTQVTVSS | high polyreactivity |
| QVQLVESGGGLVQAGGSLRLSCAASGRIFGVNAMGWYRQAPGKERELVAAISVSGDSTYYADSVKGRFTISRDNAKNTVYLQMNSLKPEDTAVYYCNAGFTFVPADLTDEYYWGQGTQVTVSS | low polyreactivity |
| QVQLVESGGGLVQAGGSLRLSCAASGRIFGVNAMGWYRQAPGKERELVADISSGGSTYYADSVKGRFTISRDNAKNTVNLQMNSLTPEYTAVYYCAVDKSVYVSYSFYFEYDYWGQGTQVTVSS | low polyreactivity |
| QVQLVESGGGLVQAGGSLRLSCAASGRIFGVYALGWYRQAPGKERELVAVISSGGSTKYADSVKGRFTISRDTAKNTVYLQMNSLKPEDTAVYYCAAADYRFWSRYDYWGQGTQVTVSS | low polyreactivity |
